Results: US6919086B1, “Graminae pollen allergen mutants for specific immunotherapy, and production and use of the same” (Merck Patent Gesellschaft mit, priority 1997, dated 2005)

How the values were obtained:
[1] = molecular target: IgE antibodies of the individual allergic patient serum II/17; test: EAST inhibition, individual serum II/17
[2] = test system: basophils from the blood of an allergic patient; test: Histamine release from basophils; assay type: cell-based, human
Protocol: Apart from the binding of the allergen to the spec. IgE, the allergen-induced, IgE-mediated release of histamine by allergic effect or cells is of pathophysiological importance for the allergic reaction (side effect). The reactivity of the effector cells (basophils and mast cells) and the epitope specificity of the IgE antibodies which are bound by way of FcεRI are also of importance in this context. For this reason, the modified recombinant allergen variants are tested for their ability to induce histamine release by the degranulation of IgE-loaded basophils which are isolated from the blood of allergic patients.
Before the histamine release test was carried out, the basophilic leucocytes from the EDTA blood of an allergic patient ([…]) were first of all enriched by means of dextran sedimentation and then adjusted to a final concentration of 100,000 basophils/ml. In order to release histamine from the basophils, 200 μl of the cell suspension were in each case incubated, at 37° C. for 40 min, with 50 μl of antigen solution. For this, the rPh1 […] p 5b and the mutants were employed in varying concentrations (of 10^−5-10^−12 M). The histamine which was released was determined in the respective supernatants using the Pharmacia methylhistamine RIA in accordance with the manufacturer's instructions.

[3] = molecular target: IgE antibodies of the individual allergic patient serum II/3; test: EAST inhibition, individual serum II/3
[4] = molecular target: IgE antibodies of the individual allergic patient serum II/12; test: EAST inhibition, individual serum II/12
[5] = molecular target: specific IgE on basophils from the blood of allergic patient; test: cell-based or functional assay

Molecule	IC50 [1] [µM]	allergenic potency (Prel) at 25% inhibition (relative to native Phl p 5b) [1]	allergenic potency (Prel) at 50% inhibition (relative to native Phl p 5b) [1]	inhibition value (inhibitor concentration at 25% inhibition) [1] [mol/L]	Concentration required to bring about a 30% histamine release, fold higher than wild type rPhl p 5b [2] [fold]	IC50 [3] [µM]	allergenic potency (Prel) at 25% inhibition (relative to native Phl p 5b) [3]	allergenic potency (Prel) at 50% inhibition (relative to native Phl p 5b) [3]	inhibition value (inhibitor concentration at 25% inhibition) [3] [mol/L]	IC50 [4] [µM]	allergenic potency (Prel) at 25% inhibition (relative to native Phl p 5b) [4]	allergenic potency (Prel) at 50% inhibition (relative to native Phl p 5b) [4]	inhibition value (inhibitor concentration at 25% inhibition) [4] [mol/L]	concentration required to bring about a 30% histamine release from basophils, against wild type rPh1 p 5b [5] [fold higher]
rPhl p 5b deletion mutant DM3 (deletion A154-T177, A220T) (protein) ADAGYAPATPAAAGAAAGKATTEEQKLIEDINVGFKAAVAAAASVPAADKFKTFEAAFTSSSKAAAAKAPGLVPKLDAAYSVAYKAAVGATPEAKFDSFVASLTEALRVIAGALEVHAVKPVTEEPGMAKIPAGELQIIDKIDAAFKVAATAAGGAYDTYKCIPSLEAAVKQAYAATVAAAPQVKYAVFEAALTKTITAMSEVQKVSQPATGAATVAAGAATTAAGAASGAATVAAGGYKV	0.05	0.038	0.0005	5.6e-09	3	32000	0.0004	1.8e-07	1.1e-06	100	0.012	5.7e-05	4.5e-09	3
rPhl p 5b point mutant PM1 (N32D, D49L, K50A) (protein) ADAGYAPATPAAAGAAAGKATTEEQKLIEDIDVGFKAAVAAAASVPAALAFKTFEAAFTSSSKAAAAKAPGLVPKLDAAYSVAYKAAVGATPEAKFDSFVASLTEALRVIAGALEVHAVKPVTEEPGMAKIPAGELQIIDKIDAAFKVAATAAATAPADDKFTVFEAAFNKAIKESTGGAYDTYKCIPSLEAAVKQAYAATVAAAPQVKYAVFEAALTKAITAMSEVQKVSQPATGAATVAAGAATTAAGAASGAATVAAGGYKV	0.0022	0.336	0.119	6.4e-10	–	0.019	0.595	0.314	8.6e-10	0.083	0.391	0.082	1.3e-09	–
rPhl p 5b point mutant PM3 (A13C) (protein) ADAGYAPATPAACGAAAGKATTEEQKLIEDINVGFKAAVAAAASVPAADKFKTFEAAFTSSSKAAAAKAPGLVPKLDAAYSVAYKAAVGATPEAKFDSFVASLTEALRVIAGALEVHAVKPVTEEPGMAKIPAGELQIIDKIDAAFKVAATAAATAPADDKFTVFEAAFNKAIKESTGGAYDTYKCIPSLEAAVKQAYAATVAAAPQVKYAVFEAALTKAITAMSEVQKVSQPATGAATVAAGAATTAAGAASGAATVAAGGYKV	0.0055	0.855	0.468	2.5e-10	–	0.015	0.922	0.399	5.5e-10	0.091	0.389	0.075	1.3e-09	–
DM1: deletion mutant of rPhl p 5b (ΔK50-P132, D49→L), SEQ ID NO 91 (protein) ADAGYAPATPAAAGAAAGKATTEEQKLIEDINVGFKAAVAAAASVPAALAGELQIIDKIDAAFKVAATAAATAPADDKFTVFEAAFNKAIKESTGGAYDTYKCIPSLEAAVKQAYAATVAAAPQVKYAVFEAALTKAITAMSEVQKVSQPATGAATVAAGAATTAAGAASGAATVAAGGYKV	–	–	–	–	20	–	–	–	–	–	–	–	–	–
